Laboratory results taken from PMC3192196 (Angewandte Chemie (International Ed. in English), 2011).

Tests used:
PSMA [1] = target: T1, PSMA (Homo sapiens, UniProt Q04609); assay: fluorescence-based PSMA inhibition assay; assay type: biochemical
[2] = electronic absorption and fluorescence spectroscopy; assay type: physicochemical; conditions: for emission maximum / fluorescence lifetime: aqueous solution; for extinction coefficient: at absorbance maximum 776 nm; for absorbance maximum: electronic spectra; for quantum yield: in PBS
[3] = test system: PSMA+ PC3-PIP and PSMA− PC3-flu xenografts; assay: sequential SPECT-CT and optical; assay type: in vivo, severe-combined immune-deficient (SCID) mice
PSMA [4] = target: T1, PSMA; assay: blocking of uptake with ZJ43; assay type: in vivo; conditions: blocking dose 50 mg/Kg ZJ43 (Figure S9)
PSMA+ PC3-PIP xenografts = assay: ex vivo biodistribution, PSMA+ PC3 PIP tumor; assay type: in vivo, severe-combined immune-deficient (SCID) mice; conditions: for PIP:flu uptake ratio: PSMA+ PIP to PSMA− flu tumor
[5] = ex vivo biodistribution, PSMA+ PC3 PIP tumor; assay type: in vivo, severe-combined immune-deficient (SCID) mice; conditions: SCID, mouse, PSMA+ PC3-PIP tumor
in vivo = conditions: SCID, mouse, PSMA− PC3-flu tumor
[6] = ex vivo biodistribution, normal tissues; conditions: for tissue uptake at 1 h / tissue uptake at 2 h / tissue uptake at 5 h / tissue uptake at 24 h: SCID, mouse

T1 sequence (Q04609 whole entry): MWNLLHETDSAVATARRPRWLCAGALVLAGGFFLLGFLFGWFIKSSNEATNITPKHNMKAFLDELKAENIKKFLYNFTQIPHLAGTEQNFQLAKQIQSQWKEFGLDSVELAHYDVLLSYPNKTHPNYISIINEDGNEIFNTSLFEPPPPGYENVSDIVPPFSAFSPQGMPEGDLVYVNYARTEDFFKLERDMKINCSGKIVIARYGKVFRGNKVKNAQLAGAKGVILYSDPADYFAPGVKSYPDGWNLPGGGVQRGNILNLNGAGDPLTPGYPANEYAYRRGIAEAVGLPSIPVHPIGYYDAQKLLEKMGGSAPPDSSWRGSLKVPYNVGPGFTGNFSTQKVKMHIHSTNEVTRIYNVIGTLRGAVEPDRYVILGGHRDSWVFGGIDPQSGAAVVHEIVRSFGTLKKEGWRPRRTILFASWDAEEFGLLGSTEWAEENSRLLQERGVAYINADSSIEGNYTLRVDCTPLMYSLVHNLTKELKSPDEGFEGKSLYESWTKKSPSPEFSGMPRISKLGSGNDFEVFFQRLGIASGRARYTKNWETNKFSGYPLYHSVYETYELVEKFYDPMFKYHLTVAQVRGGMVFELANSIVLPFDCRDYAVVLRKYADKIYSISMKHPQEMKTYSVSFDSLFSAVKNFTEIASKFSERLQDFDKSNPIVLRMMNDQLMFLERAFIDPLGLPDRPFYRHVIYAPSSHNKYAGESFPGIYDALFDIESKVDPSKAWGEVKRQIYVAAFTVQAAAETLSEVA

In the case of CC1(C)C(=CC=C2CCCC(C=CC3=[N+](CCCCS(=O)(=O)O)c4ccc(S(=O)(=O)[O-])cc4C3(C)C)=C2Oc2ccc(S(=O)(=O)O)cc2)N(CCCCCC(=O)NCCCC[C@H](NC(=O)CN2CCN(CC(=O)O)CCN(CC(=O)O)CCN(CC(=O)O)CC2)C(=O)N[C@@H](CCCCNC(=O)CCCCCCC(=O)NCCCC[C@H](NC(=O)N[C@@H](CCC(=O)O)C(=O)O)C(=O)O)C(=O)O)c2ccc(S(=O)(=O)O)cc21 (single isomer, unassigned) [Compound 1], the “PSMA inhibition, in words” value (PSMA [1]) is reported as “potent inhibitors of PSMA”, the emission maximum [2] is reported as 792 nm and the fluorescence lifetime [2] is reported as 420 psec. The extinction coefficient [2] was 181,000 M^−1cm^−1, the absorbance maximum [2] was 776 nm and the quantum yield [2] was ~ 8.9%.
For CC1(C)C(=CC=C2CCCC(C=CC3=[N+](CCCCS(=O)(=O)O)c4ccc(S(=O)(=O)[O-])cc4C3(C)C)=C2Oc2ccc(S(=O)(=O)O)cc2)N(CCCCCC(=O)NCCCC[C@H](NC(=O)CN2CCN(CC(=O)O)CCN(CC(=O)O)CCN(CC(=O)O)CC2)C(=O)N[C@@H](CCCCNC(=O)CCCCCCC(=O)NCCCC[C@H](NC(=O)N[C@@H](CCC(=O)O)C(=O)O)C(=O)O)C(=O)O)c2ccc(S(=O)(=O)O)cc21 (single isomer, unassigned) [[^113/^115In]1], the “PSMA inhibition, in words” value (PSMA [1]) was “potent inhibitors of PSMA”, the emission maximum [2] was 792 nm and the fluorescence lifetime [2] was 483 psec. For the same compound, the extinction coefficient [2] was 181,000 M^−1cm^−1, the “spectral properties of 1 versus [^113/^115In]1, in words” value ([2]; comparison of 1 and [^113/^115In]1) was “did not observe any significant changes in the spectral properties” and the absorbance maximum [2] was 776 nm. For the same compound, the quantum yield [2] was ~ 8.9%.
For CC1(C)C(=CC=C2CCCC(C=CC3=[N+](CCCCS(=O)(=O)O)c4ccc(S(=O)(=O)[O-])cc4C3(C)C)=C2Oc2ccc(S(=O)(=O)O)cc2)N(CCCCCC(=O)NCCCC[C@H](NC(=O)CN2CCN(CC(=O)O)CCN(CC(=O)O)CCN(CC(=O)O)CC2)C(=O)N[C@@H](CCCCNC(=O)CCCCCCC(=O)NCCCC[C@H](NC(=O)N[C@@H](CCC(=O)O)C(=O)O)C(=O)O)C(=O)O)c2ccc(S(=O)(=O)O)cc21 (single isomer, unassigned) [[^111In]1, metal not drawn], the “radiotracer uptake on in vivo imaging” value ([3]; 37 MBq IV, imaged repeatedly over two days) was “Intense radiotracer uptake was seen only in the PSMA+ PIP tumors and in the kidneys”, the “tumor visualization by NIRF imaging” value ([3]; single injection of ~0.22 μg (0.1 nmol)) was “able to visualize tumor with NIRF imaging” and the “blocking of uptake in PSMA+ PC3 PIP tumor and kidney by ZJ43” value (PSMA [4]) was “effective blocking in PSMA+ PC3 PIP tumor and kidney”. The “PIP:flu uptake ratio” value (PSMA+ PC3-PIP xenografts; 1h) was 6.7, the “PIP:flu uptake ratio” value (PSMA+ PC3-PIP xenografts; 2h) was 6.3 and the “PIP:flu uptake ratio” value (PSMA+ PC3-PIP xenografts; 5h) was 8.7. For the same compound, the “PIP:flu uptake ratio” value (PSMA+ PC3-PIP xenografts; 24h) was 7.4, the “binding and accumulation in PSMA+ PC3-PIP xenografts, in words” value (PSMA+ PC3-PIP xenografts; biodistribution, up to 24 h) was “PSMA dependent binding in PSMA+ PC3-PIP xenografts with rapid accumulation at the tumor site that persisted throughout the course of the experiment” and the tissue uptake at 1 h [5] was 13.9 ± 1.9 %ID/g. For the same compound, the tissue uptake at 2 h [5] was 13.3 ± 2.4 %ID/g, the tissue uptake at 5 h [5] was 16.4 ± 3.7 %ID/g and the tissue uptake at 24 h [5] was 14.6 ± 1.3 %ID/g. It also gave a tissue uptake at 1 h (in vivo) of 2.1 ± 0.7 %ID/g, a tissue uptake at 2 h (in vivo) of 2.1 ± 0.5 %ID/g and a tissue uptake at 5 h (in vivo) of 1.9 ± 0.2 %ID/g. The tissue uptake at 24 h (in vivo) was 2 ± 0.2 %ID/g, the “tissues with highest uptake at 1 h” value ([6]; 1 h) was “The blood, spleen, gastrointestinal tract, kidney and bladder displayed the highest uptake at 1 h” and the “kidney clearance, in words” value ([6]; 1 h to 24 h) was “Steady clearance from the kidneys”. The tissue uptake at 1 h ([6]; bladder) was 4.1 ± 1.7 %ID/g, the tissue uptake at 2 h ([6]; bladder) was 2.7 ± 1 %ID/g and the tissue uptake at 5 h ([6]; bladder) was 1.1 ± 0.6 %ID/g. For the same compound, the tissue uptake at 24 h ([6]; bladder) was 2 ± 0.5 %ID/g, the tissue uptake at 1 h ([6]; blood) was 9.9 ± 5 %ID/g and the tissue uptake at 2 h ([6]; blood) was 7.1 ± 1.2 %ID/g. The tissue uptake at 5 h ([6]; blood) was 4.1 ± 0.8 %ID/g, the tissue uptake at 24 h ([6]; blood) was 0.9 %ID/g and the tissue uptake at 1 h ([6]; heart) was 3.3 ± 0.5 %ID/g. The tissue uptake at 2 h ([6]; heart) was 1.8 ± 0.3 %ID/g, the tissue uptake at 5 h ([6]; heart) was 1.8 ± 0.1 %ID/g and the tissue uptake at 24 h ([6]; heart) was 0.8 ± 0.1 %ID/g. For the same compound, the tissue uptake at 1 h ([6]; kidney) was 104 ± 9.4 %ID/g, the tissue uptake at 2 h ([6]; kidney) was 97.1 ± 13 %ID/g and the tissue uptake at 5 h ([6]; kidney) was 122 ± 21.6 %ID/g. The tissue uptake at 24 h ([6]; kidney) was 48.1 ± 17.7 %ID/g, the tissue uptake at 1 h ([6]; large intestine) was 1.5 ± 0.5 %ID/g and the tissue uptake at 2 h ([6]; large intestine) was 1.3 ± 0.3 %ID/g. The tissue uptake at 5 h ([6]; large intestine) was 0.8 ± 0.5 %ID/g, the tissue uptake at 24 h ([6]; large intestine) was 2 ± 0.4 %ID/g and the tissue uptake at 1 h ([6]; liver) was 2.4 ± 0.1 %ID/g. It also gave a tissue uptake at 2 h ([6]; liver) of 2.2 %ID/g, a tissue uptake at 5 h ([6]; liver) of 3.2 ± 1.2 %ID/g and a tissue uptake at 24 h ([6]; liver) of 3.1 ± 0.4 %ID/g. It also gave a tissue uptake at 1 h ([6]; muscle) of 1.2 ± 0.6 %ID/g, a tissue uptake at 2 h ([6]; muscle) of 0.7 ± 0.2 %ID/g and a tissue uptake at 5 h ([6]; muscle) of 0.9 ± 0.2 %ID/g. For the same compound, the tissue uptake at 24 h ([6]; muscle) was 0.4 %ID/g, the tissue uptake at 1 h ([6]; pancreas) was 2.1 ± 0.1 %ID/g and the tissue uptake at 2 h ([6]; pancreas) was 1.3 ± 0.3 %ID/g. The tissue uptake at 5 h ([6]; pancreas) was 2 ± 1 %ID/g, the tissue uptake at 24 h ([6]; pancreas) was 1 ± 0.3 %ID/g and the tissue uptake at 1 h ([6]; small intestine) was 1.8 ± 0.5 %ID/g. For the same compound, the tissue uptake at 2 h ([6]; small intestine) was 1.5 ± 0.2 %ID/g, the tissue uptake at 5 h ([6]; small intestine) was 1.6 ± 0.3 %ID/g and the tissue uptake at 24 h ([6]; small intestine) was 2 ± 0.7 %ID/g. It also gave a tissue uptake at 1 h ([6]; spleen) of 11.3 ± 3.7 %ID/g, a tissue uptake at 2 h ([6]; spleen) of 6.8 ± 0.9 %ID/g and a tissue uptake at 5 h ([6]; spleen) of 4.8 ± 2.4 %ID/g. For the same compound, the tissue uptake at 24 h ([6]; spleen) was 8.2 ± 5.4 %ID/g, the tissue uptake at 1 h ([6]; stomach) was 1.4 ± 0.3 %ID/g and the tissue uptake at 2 h ([6]; stomach) was 1.2 ± 0.1 %ID/g. For the same compound, the tissue uptake at 5 h ([6]; stomach) was 2.4 ± 1.8 %ID/g and the tissue uptake at 24 h ([6]; stomach) was 1 ± 0.1 %ID/g.
